Data taken from patent publication US5405946A, “Recombinant protein S variants deficient in C4BP binding activity, compositions and therapeutic methods” (The Scripps Research Institute, priority 1992, dated 1995).
One block for each molecule: values may come before it.

Tests used:
[1] = molecular target: activated protein C (APC) (Homo sapiens, UniProt P04070); assay: Activated partial thromboplastin time clotting assay, APC cofactor activity in PS- and C4BP-depleted plasma; type: biochemical
Description: (§1) An activated partial thromboplastin time clotting assay, using PS- and C4BP-depleted plasma, cephalin-kaolin reagent (Boehringer Mannhein, Indianapolis, Ind.), activated protein C (APC) and increasing amounts of recombinant PS variants was performed as described by Chang et al., Thromb. Haemost., 67:526-532 (1992). Briefly, to 50 ul PS and C4BP-depleted plasma (prepared as described by Koedam et al., J. Clin. Invest., 82:1236-1243 (1988)) was added 50 ul cephalin-kaolin reagent, 25 ul APC (Koedam et al., ibid) at 5 ug/ml and 15 to 45 ul recombinant PS variants (0-4 ug/ml) diluted in Michaelis buffer (28.5 mM sodium acetate, 28.5 mM sodium barbital and 116 mM NaCl, pH 7.35) and maintained for 3 minutes at 37C. Clotting was initiated by addition of 50 ul of 25 mM CaCl2 and the clotting time was measured in an Amelung-Coagulometer KC10.
(§2) The ability of the variants to serve as a cofactor for APC was tested in a clotting assay. The clotting assay was performed as described in Example 2D. To examine the effects of thrombin on recombinant PS variants APC cofactor activity, one ml of purified recombinant PS variants listed above and prepared in Example 1D (4-40 ug/ml) was maintained with 1/20 vol (50 ul) of thrombin-Sepharose for 1 hour at 37C. in 50 mM Tris-HCl pH 7.5 containing […]. Thrombin-Sepharose was removed by centrifugation. Supernatants containing the thrombin-treated PS were stored at -20C. until used.
(§3) The PS-dependent prolongation of the clotting time was measured in an activated partial thromboplastin time system using PS and C4BP depleted plasma, APC and cephalin-kaolin reagent as described in Example 2D. Increasing amounts of recombinant PS or the triple variant treated without or with thrombin were added. Clotting was initiated by the addition of CaCl2 and the clotting time was measured. The results are presented as the means of duplicate values.

thrombin = molecular target: T1, thrombin (Homo sapiens, UniProt P00734); assay: APC cofactor clotting assay after thrombin-Sepharose treatment of PS variants; type: biochemical; settings: for Clotting Time After Treatment: after thrombin treatment, without protein S 72 ± 2 seconds
T1 construct: maintained with 1/20 vol (50 ul) of thrombin-Sepharose for 1 hour at 37C
Description: as §1, §2, §3

[2] = concentration 2.38 ug/ml, without protein S 72 ± 2 seconds
[3] = concentration 0.60 ug/ml, without protein S 72 ± 2 seconds
[4] = concentration 1.12 ug/ml, without protein S 72 ± 2 seconds

Chain of activated protein C (APC) (P04070 212-461 limits assumed): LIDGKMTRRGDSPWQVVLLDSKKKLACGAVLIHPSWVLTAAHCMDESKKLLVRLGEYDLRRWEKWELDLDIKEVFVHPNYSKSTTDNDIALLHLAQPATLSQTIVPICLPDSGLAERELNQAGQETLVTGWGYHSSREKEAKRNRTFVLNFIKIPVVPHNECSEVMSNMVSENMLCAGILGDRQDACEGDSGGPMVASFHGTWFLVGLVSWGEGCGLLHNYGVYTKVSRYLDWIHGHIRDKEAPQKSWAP
Chain of activated protein C (APC) (P04070 43-197 limits assumed): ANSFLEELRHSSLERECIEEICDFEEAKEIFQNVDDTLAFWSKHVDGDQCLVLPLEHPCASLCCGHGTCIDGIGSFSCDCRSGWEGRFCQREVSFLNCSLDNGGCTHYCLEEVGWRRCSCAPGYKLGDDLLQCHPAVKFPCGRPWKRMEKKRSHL

Clotting Time [1, 2]: 91 s
Clotting Time ([1]; final conc. 2.4 ug/ml, basal clotting 80): 116 s
Clotting Time After Treatment (thrombin; concentration 2.38 ug/ml): 70 s
APC cofactor activity after treatment with thrombin (thrombin; thrombin-Sepharose 1 hour at 37C): significantly decreased
Molecule: rPS wild-type: recombinant wild-type full length human protein S expressed in C127I cells [reference compound]

Clotting Time [1, 2]: 90 s
Clotting Time After Treatment (thrombin; concentration 2.38 ug/ml): 75 s
B3: R60L variant: recombinant protein S single variant in thrombin-sensitive domain, arginine 60 replaced by leucine (protein, UniProt P07225 42-676, looked up, variant R60L)
Vitamin K-dependent protein S: ANSLLEETKQGNLERECIEELCNKEEAREVFENDPETDYFYPKYLVCLRSFQTGLFTAALQSTNAYPDLRSCVNAIPDQCSPLPCNEDGYMSCKDGKASFTCTCKPGWQGEKCEFDINECKDPSNINGGCSQICDNTPGSYHCSCKNGFVMLSNKKDCKDVDECSLKPSICGTAVCKNIPGDFECECPEGYRYNLKSKSCEDIDECSENMCAQLCVNYPGGYTCYCDGKKGFKLAQDQKSCEVVSVCLPLNLDTKYELLYLAEQFAGVVLYLKFRLPEISRFSAEFDFRTYDSEGVILYAESIDHSAWLLIALRGGKIEVQLKNEHTSKITTGGDVINNGLWNMVSVEELEHSISIKIAKEAVMDINKPGPLFKPENGLLETKVYFAGFPRKVESELIKPINPRLDGCIRSWNLMKQGASGIKEIIQEKQNKHCLVTVEKGSYYPGSGIAQFHIDYNNVSSAEGWHVNVTLNIRPSTGTGVMLALVSGNNTVPFAVSLVDSTSEKSQDILLSVENTVIYRIQALSLCSDQQSHLEFRVNRNNLELSTPLKIETISHEDLQRQLAVLDKAMKAKVATYLGGLPDVPFSATPVNAFYNGCMEVNINGVQLDLDEAISKHNDIRAHSCPSVWKKTKNS

Clotting Time [1, 4]: 86 s
Clotting Time After Treatment (thrombin; concentration 1.12 ug/ml): 80 s
B6: R49L/R70I variant: recombinant protein S double variant in thrombin-sensitive domain (protein, UniProt P07225 42-676, looked up, variant R49L R70I)
Vitamin K-dependent protein S: ANSLLEETKQGNLERECIEELCNKEEAREVFENDPETDYFYPKYLVCLLSFQTGLFTAARQSTNAYPDLISCVNAIPDQCSPLPCNEDGYMSCKDGKASFTCTCKPGWQGEKCEFDINECKDPSNINGGCSQICDNTPGSYHCSCKNGFVMLSNKKDCKDVDECSLKPSICGTAVCKNIPGDFECECPEGYRYNLKSKSCEDIDECSENMCAQLCVNYPGGYTCYCDGKKGFKLAQDQKSCEVVSVCLPLNLDTKYELLYLAEQFAGVVLYLKFRLPEISRFSAEFDFRTYDSEGVILYAESIDHSAWLLIALRGGKIEVQLKNEHTSKITTGGDVINNGLWNMVSVEELEHSISIKIAKEAVMDINKPGPLFKPENGLLETKVYFAGFPRKVESELIKPINPRLDGCIRSWNLMKQGASGIKEIIQEKQNKHCLVTVEKGSYYPGSGIAQFHIDYNNVSSAEGWHVNVTLNIRPSTGTGVMLALVSGNNTVPFAVSLVDSTSEKSQDILLSVENTVIYRIQALSLCSDQQSHLEFRVNRNNLELSTPLKIETISHEDLQRQLAVLDKAMKAKVATYLGGLPDVPFSATPVNAFYNGCMEVNINGVQLDLDEAISKHNDIRAHSCPSVWKKTKNS

The remaining lines, values behind:

B1: R49L variant: recombinant protein S single variant in thrombin-sensitive domain, arginine 49 replaced by leucine (protein, UniProt P07225 42-676, looked up, variant R49L)
Vitamin K-dependent protein S: ANSLLEETKQGNLERECIEELCNKEEAREVFENDPETDYFYPKYLVCLLSFQTGLFTAARQSTNAYPDLRSCVNAIPDQCSPLPCNEDGYMSCKDGKASFTCTCKPGWQGEKCEFDINECKDPSNINGGCSQICDNTPGSYHCSCKNGFVMLSNKKDCKDVDECSLKPSICGTAVCKNIPGDFECECPEGYRYNLKSKSCEDIDECSENMCAQLCVNYPGGYTCYCDGKKGFKLAQDQKSCEVVSVCLPLNLDTKYELLYLAEQFAGVVLYLKFRLPEISRFSAEFDFRTYDSEGVILYAESIDHSAWLLIALRGGKIEVQLKNEHTSKITTGGDVINNGLWNMVSVEELEHSISIKIAKEAVMDINKPGPLFKPENGLLETKVYFAGFPRKVESELIKPINPRLDGCIRSWNLMKQGASGIKEIIQEKQNKHCLVTVEKGSYYPGSGIAQFHIDYNNVSSAEGWHVNVTLNIRPSTGTGVMLALVSGNNTVPFAVSLVDSTSEKSQDILLSVENTVIYRIQALSLCSDQQSHLEFRVNRNNLELSTPLKIETISHEDLQRQLAVLDKAMKAKVATYLGGLPDVPFSATPVNAFYNGCMEVNINGVQLDLDEAISKHNDIRAHSCPSVWKKTKNS
Clotting Time [1, 3]: 80 s
Clotting Time After Treatment (thrombin; concentration 0.60 ug/ml): 72 s

B2: R49L/R60L variant: recombinant protein S double variant in thrombin-sensitive domain (protein, UniProt P07225 42-676, looked up, variant R49L R60L)
Vitamin K-dependent protein S: ANSLLEETKQGNLERECIEELCNKEEAREVFENDPETDYFYPKYLVCLLSFQTGLFTAALQSTNAYPDLRSCVNAIPDQCSPLPCNEDGYMSCKDGKASFTCTCKPGWQGEKCEFDINECKDPSNINGGCSQICDNTPGSYHCSCKNGFVMLSNKKDCKDVDECSLKPSICGTAVCKNIPGDFECECPEGYRYNLKSKSCEDIDECSENMCAQLCVNYPGGYTCYCDGKKGFKLAQDQKSCEVVSVCLPLNLDTKYELLYLAEQFAGVVLYLKFRLPEISRFSAEFDFRTYDSEGVILYAESIDHSAWLLIALRGGKIEVQLKNEHTSKITTGGDVINNGLWNMVSVEELEHSISIKIAKEAVMDINKPGPLFKPENGLLETKVYFAGFPRKVESELIKPINPRLDGCIRSWNLMKQGASGIKEIIQEKQNKHCLVTVEKGSYYPGSGIAQFHIDYNNVSSAEGWHVNVTLNIRPSTGTGVMLALVSGNNTVPFAVSLVDSTSEKSQDILLSVENTVIYRIQALSLCSDQQSHLEFRVNRNNLELSTPLKIETISHEDLQRQLAVLDKAMKAKVATYLGGLPDVPFSATPVNAFYNGCMEVNINGVQLDLDEAISKHNDIRAHSCPSVWKKTKNS
Clotting Time [1, 4]: 88 s
Clotting Time After Treatment (thrombin; concentration 1.12 ug/ml): 80 s

B4: R70I variant: recombinant protein S single variant in thrombin-sensitive domain, arginine 70 replaced by isoleucine (protein, UniProt P07225 42-676, looked up, variant R70I)
Vitamin K-dependent protein S: ANSLLEETKQGNLERECIEELCNKEEAREVFENDPETDYFYPKYLVCLRSFQTGLFTAARQSTNAYPDLISCVNAIPDQCSPLPCNEDGYMSCKDGKASFTCTCKPGWQGEKCEFDINECKDPSNINGGCSQICDNTPGSYHCSCKNGFVMLSNKKDCKDVDECSLKPSICGTAVCKNIPGDFECECPEGYRYNLKSKSCEDIDECSENMCAQLCVNYPGGYTCYCDGKKGFKLAQDQKSCEVVSVCLPLNLDTKYELLYLAEQFAGVVLYLKFRLPEISRFSAEFDFRTYDSEGVILYAESIDHSAWLLIALRGGKIEVQLKNEHTSKITTGGDVINNGLWNMVSVEELEHSISIKIAKEAVMDINKPGPLFKPENGLLETKVYFAGFPRKVESELIKPINPRLDGCIRSWNLMKQGASGIKEIIQEKQNKHCLVTVEKGSYYPGSGIAQFHIDYNNVSSAEGWHVNVTLNIRPSTGTGVMLALVSGNNTVPFAVSLVDSTSEKSQDILLSVENTVIYRIQALSLCSDQQSHLEFRVNRNNLELSTPLKIETISHEDLQRQLAVLDKAMKAKVATYLGGLPDVPFSATPVNAFYNGCMEVNINGVQLDLDEAISKHNDIRAHSCPSVWKKTKNS
Clotting Time [1, 3]: 79 s
Clotting Time After Treatment (thrombin; concentration 0.60 ug/ml): 75 s

B5: R60L/R70I variant: recombinant protein S double variant in thrombin-sensitive domain (protein, UniProt P07225 42-676, looked up, variant R60L R70I)
Vitamin K-dependent protein S: ANSLLEETKQGNLERECIEELCNKEEAREVFENDPETDYFYPKYLVCLRSFQTGLFTAALQSTNAYPDLISCVNAIPDQCSPLPCNEDGYMSCKDGKASFTCTCKPGWQGEKCEFDINECKDPSNINGGCSQICDNTPGSYHCSCKNGFVMLSNKKDCKDVDECSLKPSICGTAVCKNIPGDFECECPEGYRYNLKSKSCEDIDECSENMCAQLCVNYPGGYTCYCDGKKGFKLAQDQKSCEVVSVCLPLNLDTKYELLYLAEQFAGVVLYLKFRLPEISRFSAEFDFRTYDSEGVILYAESIDHSAWLLIALRGGKIEVQLKNEHTSKITTGGDVINNGLWNMVSVEELEHSISIKIAKEAVMDINKPGPLFKPENGLLETKVYFAGFPRKVESELIKPINPRLDGCIRSWNLMKQGASGIKEIIQEKQNKHCLVTVEKGSYYPGSGIAQFHIDYNNVSSAEGWHVNVTLNIRPSTGTGVMLALVSGNNTVPFAVSLVDSTSEKSQDILLSVENTVIYRIQALSLCSDQQSHLEFRVNRNNLELSTPLKIETISHEDLQRQLAVLDKAMKAKVATYLGGLPDVPFSATPVNAFYNGCMEVNINGVQLDLDEAISKHNDIRAHSCPSVWKKTKNS
Clotting Time [1, 3]: 79 s
Clotting Time After Treatment (thrombin; concentration 0.60 ug/ml): 72 s
